In patent US20160024155A1 (published 2016):
Where two headings read alike, the source gives them in different places.

B1: HB36.1 (Asp47Ser) (designed binder)
chain: MSNAMDGQQLNRLLLEWIGAWDPFGLGKDAYDVEAEAVLQAVYETESAFDLAMRIMWIYAFAFNRPIPFPHAQKLARRLLELKQAASSPLPLE
B2: HB80.1 (Met26Thr, Asn36Lys) (designed binder)
chain: MASTRGSGRPWDFSENLAFELALAFTNKDTPDRWAKVAQYVSGRTPEEVKKHYEILVEDIKYIESGKVPFPNYRTTGGNMKTDEKRFRNLKIRLE

Experiments:
[1] = biological target: T1, A/South Carolina/1/1918 (H1N1) hemagglutinin ectodomain (Influenza A virus A/South …)
[2] = biological target: T1, A/South Carolina/1/1918 (H1N1) …; remark: listed apart in the source
[3] = biological target: T1, A/South Carolina/1/1918 (H1N1) …; remark: listed apart in the source
[4] = biological target: T1, A/South Carolina/1/1918 (H1N1) …; remark: listed apart in the source

Binder	Kd [1]	Kd [2]	fold increase in binding affinity relative to original design (HB36) [2]	fold increase in binding affinity relative to HB36 [3]	Kd [4]
B1	5 nM	2 to 5 nM	> 10 fold	~40 fold	–
B2	7.5 nM	–	–	–	7.5 nM
